{"source": "paper PMC2752461", "about": "“Involvement of S-adenosylmethionine-dependent halide/thiol methyltransferase (HTMT) in methyl halide emissions from agricultural plants: isolation and characterization of an HTMT-coding gene from Raphanus sativus (daikon radish)” (BMC Plant Biology, 2009)", "proteins": {"B1": {"name": "recombinant RsHTMT (Raphanus sativus) (protein)", "chain": "MAEGQQNSGNSNGENIIPPEDVAKFLPKTVEEGGWEKCWEDGVTPWDQGRATPLVVHLVESSSLPLGRALVPGCGGGHDVVAMASPERYVVGLDISESALEKAAETYASSPKAKYFTFVKEDFFTWRPSELFDLIFDYVVFCAIEPEMRAAWAKTMYELLKPDGELITLMYPITDHDGGPPYKVAVSTYEDVLVPVGFKAVSIEENPYSIATRKGKEKLGRWKKIN", "notes": "sense primer encodes MAEGQQ), His-tagged fusion in pET-21b, E. coli BL21(DE3), Ni-Sepharose, tag kept"}}, "key": {"[1]": {"substrate": "N#CS", "test": "GC-FID of CH3SCN formation", "format": "biochemical, Raphanus sativus", "settings": "500 μM SAM constant, KSCN, 20 mM MES pH 7.0, 30 °C", "text": "GC-FID of CH3SCN formation on recombinant RsHTMT"}, "purified protein": {"substrate": "C[S+](CC[C@H](N)C(=O)O)C[C@H]1O[C@@H](n2cnc3c(N)ncnc32)[C@H](O)[C@@H]1O", "test": "purified protein", "settings": "20 mM iodide constant, 20 mM MES pH 7.0, 30 °C"}, "[2]": {"substrate": "S", "test": "GC-MS headspace assay of methylated product", "format": "biochemical, Raphanus sativus", "settings": "500 μM SAM constant, supplied as NaSH, 20 mM MES pH 7.0, 30 °C", "source_text": "(§1) GC-MS headspace assay of methylated product on recombinant RsHTMT"}, "[3]": {"substrate": "I", "test": "GC-MS headspace assay of methylated product", "format": "biochemical, Raphanus sativus", "settings": "500 μM SAM constant, 20 mM MES pH 7.0, 30 °C", "source_text": "as §1"}}}
{"protein": "B1", "values": [{"measurement": "Km", "setting": "[1]", "result": 40, "unit": "µM"}, {"measurement": "Vmax", "setting": "[1]", "result": 0.185, "unit": "µmol/min/mg"}, {"measurement": "Km", "setting": "purified protein", "result": 190, "unit": "µM"}, {"measurement": "Km", "setting": "[2]", "result": 12240, "unit": "µM"}, {"measurement": "Vmax", "setting": "[2]", "result": 0.159, "unit": "µmol/min/mg"}, {"measurement": "Km", "setting": "[3]", "result": 4470, "unit": "µM"}, {"measurement": "Vmax", "setting": "[3]", "result": 0.139, "unit": "µmol/min/mg"}]}
